Laboratory results taken from paper PMC5714172.

Target: MBP-Hsmar1 transposase (human)
Assay: SEC; Superdex 200 10/300 GL, GF buffer (25 mM HEPES pH 7.5, 200 mM NaCl, 2 mM DTT, 5 mM EDTA, 0.1% Triton X-100 reduced); ^MBPHsmar1 after increasing Factor Xa proteolysis (1 ug protease per 50 ug fusion protein)

Work on MBP-Hsmar1 transposase (enzyme) yielded a stoichiometry N of 2.
